IntAct's records for PubMed 18045938

B1: Envelope glycoprotein B (Human herpesvirus 8), F5HB81 (parent)
chain: MTPRSRLATLGTVILLVCFCAGAAHSRGDTFQTSSSPTPPGSSSKAPTKPGEEASGPKSVDFYQFRVCSASITGELFRFNLEQTCPDTKDKYHQEGILLVYKKNIVPHIFKVRRYRKIATSVTVYRGLTESAITNKYELPRPVPLYEISHMDSTYQCFSSMKVNVNGVENTFTDRDDVNTTVFLQPVEGLTDNIQRYFSQPVIYAEPGWFPGIYRVRTTVNCEIVDMIARSAEPYNYFVTSLGDTVEVSPFCYNESSCSTTPSNKNGLSVQVVLNHTVVTYSDRGTSPTPQNRIFVETGAYTLSWASESKTTAVCPLALWKTFPRSIQTTHEDSFHFVANEITATFTAPLTPVANFTDTYSCLTSDINTTLNASKAKLASTHVPNGTVQYFHTTGGLYLVWQPMSAINLTHAQGDSGNPTSSPPPSASPMTTSASRRKRRSASTAAAGGGGSTDNLSYTQLQFAYDKLRDGINQVLEELSRAWCREQVRDNLMWYELSKINPTSVMTAIYGRPVSAKFVGDAISVTECINVDQSSVNIHKSLRTNSKDVCYARPLVTFKFLNSSNLFTGQLGARNEIILTNNQVETCKDTCEHYFITRNETLVYKDYAYLRTINTTDISTLNTFIALNLSFIQNIDFKAIELYSSAEKRLASSVFDLETMFREYNYYTHRLAGLREDLDNTIDMNKERFVRDLSEIVADLGGIGKTVVNVASSVVTLCGSLVTGFINFIKHPLGGMLMIIIVIAIILIIFMLSRRTNTIAQAPVKMIYPDVDRRAPPSGGAPTREEIKNILLGMHQLQQEERQKADDLKKSTPSVFQRTANGLRQRLRGYKPLTQSLDISPETGE

Variants of: B1
Conditions: with itb3_human ITGB3, P05106
Chain of itb3_human ITGB3, P05106 (P05106 whole entry): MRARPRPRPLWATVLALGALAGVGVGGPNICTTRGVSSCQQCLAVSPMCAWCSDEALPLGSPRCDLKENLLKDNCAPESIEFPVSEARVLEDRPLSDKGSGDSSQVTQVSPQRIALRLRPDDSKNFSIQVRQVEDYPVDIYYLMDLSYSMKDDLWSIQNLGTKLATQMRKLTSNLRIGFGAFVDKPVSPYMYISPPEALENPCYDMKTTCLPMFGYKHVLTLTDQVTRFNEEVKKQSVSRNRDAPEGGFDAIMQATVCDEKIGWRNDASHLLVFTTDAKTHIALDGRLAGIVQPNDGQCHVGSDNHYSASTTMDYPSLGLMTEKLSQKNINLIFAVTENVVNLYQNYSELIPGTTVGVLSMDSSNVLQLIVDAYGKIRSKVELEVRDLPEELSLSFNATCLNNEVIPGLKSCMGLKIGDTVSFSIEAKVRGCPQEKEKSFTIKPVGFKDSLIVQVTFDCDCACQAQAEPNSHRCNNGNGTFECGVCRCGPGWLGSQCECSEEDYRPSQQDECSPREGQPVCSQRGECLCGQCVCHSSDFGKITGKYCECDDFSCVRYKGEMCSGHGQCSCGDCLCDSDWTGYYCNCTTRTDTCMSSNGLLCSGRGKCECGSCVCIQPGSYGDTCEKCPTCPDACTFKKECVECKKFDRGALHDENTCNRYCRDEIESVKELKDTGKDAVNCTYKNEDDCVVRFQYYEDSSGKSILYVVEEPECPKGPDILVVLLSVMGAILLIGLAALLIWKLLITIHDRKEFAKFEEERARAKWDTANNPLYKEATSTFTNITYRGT

Variant | effect of a mutation on the interaction
D29E | disrupting interaction
